Consider three molecules from publication PMC12373829 (Nature Communications, 2025).

The target in series [1] is T1, acarbose-preferred glucosidase (Apg) (Klebsiella grimontii, UniProt A0ABD7ANA7, DEL138-152).
T1 sequence (A0ABD7ANA7 1-605 DEL138-152): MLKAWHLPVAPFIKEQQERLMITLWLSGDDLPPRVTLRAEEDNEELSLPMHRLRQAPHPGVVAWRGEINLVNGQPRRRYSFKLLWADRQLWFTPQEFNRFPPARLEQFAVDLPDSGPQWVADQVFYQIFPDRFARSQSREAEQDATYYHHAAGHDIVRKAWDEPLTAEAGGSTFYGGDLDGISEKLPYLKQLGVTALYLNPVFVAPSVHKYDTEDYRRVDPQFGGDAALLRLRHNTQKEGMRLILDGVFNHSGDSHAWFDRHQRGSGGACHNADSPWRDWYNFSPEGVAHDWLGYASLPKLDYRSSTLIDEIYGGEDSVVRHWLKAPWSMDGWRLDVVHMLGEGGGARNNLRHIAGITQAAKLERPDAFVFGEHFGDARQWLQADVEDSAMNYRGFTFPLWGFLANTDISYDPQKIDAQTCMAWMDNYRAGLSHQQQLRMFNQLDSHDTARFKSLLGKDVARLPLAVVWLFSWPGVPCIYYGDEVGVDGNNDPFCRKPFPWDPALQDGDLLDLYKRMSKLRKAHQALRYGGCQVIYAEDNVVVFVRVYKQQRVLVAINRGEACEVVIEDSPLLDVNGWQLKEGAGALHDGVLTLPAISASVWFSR
In words: X-ray crystal structure. It counts as binding.

The target in series [2] is acarbose-preferred glucosidase (Apg), wild type (K. grimontii TD1). In words: SEC. On the technique in general: SEC sorts molecules by how far they enter the pores of the column.
Substrate in series [3]: C[C@H]1O[C@H](O[C@H]2[C@H](O)[C@@H](O)[C@@H](O)O[C@@H]2CO)[C@H](O)[C@@H](O)[C@@H]1N[C@H]1C=C(CO)[C@@H](O)[C@H](O)[C@H]1O
In words: purified protein. To be noted: active site.

Substrate in series [4]: C[C@H]1O[C@H](O[C@H]2[C@H](O)[C@@H](O)[C@@H](O[C@H]3[C@H](O)[C@@H](O)C(O)O[C@@H]3CO)O[C@@H]2CO)[C@H](O)[C@@H](O)[C@@H]1N[C@H]1C=C(CO)[C@@H](O)[C@H](O)[C@H]1O
In words: purified protein. To be noted: active site; D448 nucleophile, E373/R334 proton donor.

Regarding `OC[C@H]1O[C@H](O)[C@H](O)[C@@H](O)[C@@H]1O` [glucose], the “X-ray crystal structure (co-crystallization)” value in series [1] is “Crystals of the glucose complex were obtained by co-crystallization of the ∆loop A mutant”.
One may read the stoichiometry N as a count of units in the complex or per binding partner. Take “acarbose-preferred glucosidase (Apg), wild type (enzyme)”: the stoichiometry N in series [2] is 2.

B1: acarbose-preferred glucosidase (Apg) (Klebsiella grimontii) (protein)
chain: MLKAWHLPVAPFIKEQQERLMITLWLSGDDLPPRVTLRAEEDNEELSLPMHRLRQAPHPGVVAWRGEINLVNGQPRRRYSFKLLWADRQLWFTPQEFNRFPPARLEQFAVDLPDSGPQWVADQVFYQIFPDRFARSQSREAEQDATYYHHAAGHDIVRKAWDEPLTAEAGGSTFYGGDLDGISEKLPYLKQLGVTALYLNPVFVAPSVHKYDTEDYRRVDPQFGGDAALLRLRHNTQKEGMRLILDGVFNHSGDSHAWFDRHQRGSGGACHNADSPWRDWYNFSPEGVAHDWLGYASLPKLDYRSSTLIDEIYGGEDSVVRHWLKAPWSMDGWRLDVVHMLGEGGGARNNLRHIAGITQAAKLERPDAFVFGEHFGDARQWLQADVEDSAMNYRGFTFPLWGFLANTDISYDPQKIDAQTCMAWMDNYRAGLSHQQQLRMFNQLDSHDTARFKSLLGKDVARLPLAVVWLFSWPGVPCIYYGDEVGVDGNNDPFCRKPFPWDPALQDGDLLDLYKRMSKLRKAHQALRYGGCQVIYAEDNVVVFVRVYKQQRVLVAINRGEACEVVIEDSPLLDVNGWQLKEGAGALHDGVLTLPAISASVWFSR
As a reminder, the Km is the concentration of substrate that gives half-maximal velocity. As for B1, the Km is reported as 6.642 ± 0.371 µM in series [3] and 2.600 ± 0.652 µM in series [4].
